Results taken from paper doi:10.1101/2021.09.13.460076.

Target: dimeric human ACE2 fused to Fc domain of human IgG (human) (UniProt Q9BYF1)
Assay: SPR

dimeric human ACE2 fused to Fc domain of human IgG (human), sequence (Q9BYF1 18-740): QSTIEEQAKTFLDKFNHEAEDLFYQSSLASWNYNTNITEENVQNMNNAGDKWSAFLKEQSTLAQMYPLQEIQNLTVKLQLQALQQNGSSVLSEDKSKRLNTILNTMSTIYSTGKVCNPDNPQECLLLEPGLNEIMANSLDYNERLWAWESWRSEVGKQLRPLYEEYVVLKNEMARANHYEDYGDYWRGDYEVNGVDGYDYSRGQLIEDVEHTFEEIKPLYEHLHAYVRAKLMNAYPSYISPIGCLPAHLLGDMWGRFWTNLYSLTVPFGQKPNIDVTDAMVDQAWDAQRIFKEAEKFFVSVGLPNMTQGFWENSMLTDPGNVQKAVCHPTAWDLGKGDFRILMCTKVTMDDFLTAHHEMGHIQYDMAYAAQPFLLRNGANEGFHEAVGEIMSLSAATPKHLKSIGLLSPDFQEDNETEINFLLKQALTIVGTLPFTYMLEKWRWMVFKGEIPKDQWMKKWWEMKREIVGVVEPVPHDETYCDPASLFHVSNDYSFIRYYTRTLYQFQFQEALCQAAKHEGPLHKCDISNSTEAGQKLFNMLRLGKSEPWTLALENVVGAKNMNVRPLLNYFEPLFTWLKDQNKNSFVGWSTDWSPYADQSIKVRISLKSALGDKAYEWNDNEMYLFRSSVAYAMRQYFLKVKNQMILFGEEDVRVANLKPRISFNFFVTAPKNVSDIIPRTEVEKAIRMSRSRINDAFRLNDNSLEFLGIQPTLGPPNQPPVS

ADDomer particle decorated with SARS-CoV-2 RBD (ADD-RBD) (from UniProt Q2Y0H9 1-544; P0DTC2 320-554) (complex)
Kd: 0.309 nM
